Among the data in publication PMC11075132, “A transaminase-mediated aldol reaction and applications in cascades to styryl pyridines” (Catalysis Science & Technology, 2024) are Km and kcat values, retold here.

Substrate in this series: NCCc1ccc(O)cc1
Put plainly: purified protein. In kind it is biochemical, Chromobacterium violaceum. The note with it: apparent; transaminase reaction; 0.1 eq. PLP, 1 eq. pyruvate as amine acceptor; substrate 4a taken from context.

B1: CvTAm (Chromobacterium violaceum ATCC 12472) (protein)
chain: MQKQRTTSQWRELDAAHHLHPFTDTASLNQAGARVMTRGEGVYLWDSEGNKIIDGMAGLWCVNVGYGRKDFAEAARRQMEELPFYNTFFKTTHPAVVELSSLLAEVTPAGFDRVFYTNSGSESVDTMIRMVRRYWDVQGKPEKKTLIGRWNGYHGSTIGGASLGGMKYMHEQGDLPIPGMAHIEQPWWYKHGKDMTPDEFGVVAARWLEEKILEIGADKVAAFVGEPIQGAGGVIVPPATYWPEIERICRKYDVLLVADEVICGFGRTGEWFGHQHFGFQPDLFTAAKGLSSGYLPIGAVFVGKRVAEGLIAGGDFNHGFTYSGHPVCAAVAHANVAALRDEGIVQRVKDDIGPYMQKRWRETFSRFEHVDDVRGVGMVQAFTLVKNKAKRELFPDFGEIGTLCRDIFFRNNLIMRACGDHIVSAPPLVMTRAEVDEMLAVAERCLEEFEQTLKARGLA
notes: wild type, recombinant in E. coli, purified; homodimer; PLP enzyme; catalytic Lys288
As to B1, the Michaelis-Menten constant (Km) is given as 1.69 mM and the kcat was found to be 6.04 s⁻¹.

Broadly, the Km is the concentration of substrate that gives half-maximal velocity. As a reminder, the kcat is the maximal rate divided by the concentration of active sites.
